# Test results reported in US20240181022A1, “AMURINS LYSINS, AND LYSIN-ANTIMICROBIAL PEPTIDE (AMP) CONSTRUCTS ACTIVE AGAINST GRAM-NEGATIVE BACTERIA” (priority 2021, published 2024).
# Several values for one entry are separate records, joined by “and”; a condition that tells them apart may be missing. Equal values may be shown once. Read-outs that look alike come from different tables or passages of the source. Where no end group is shown, it is not given here.
# B1: GN370: lysin-AMP construct, SEQ ID NO: 149: MIDR, FIRL and NPTH moieties N-terminal to GN202 lysin (protein)
# chain: MIDRFIRLNPTHGPRRPRRPGRRAPVRTSQRGIDLIKSFEGLRLSAYQDSVGVWTIGYGTTRGVTRYMTITVEQAERMLSNDIQRFEPELDRLAKVPLNQNQWDALMSFVYNLGAANLASSTLLDLLNKGDYQGAADQFPHWVNAGGKRLDGLVKRRAAERALFLEPLS
# modifications: GN370 lysin
# Columns and labels:
# [1] = tested on: E. coli; assay: Checkerboard synergy assay (FICI) against E. coli; assay type: cell-based, Escherichia coli; conditions: E. coli ATCC 25922
# Source text: In some embodiments, the Chp peptides disclosed herein or active fragments thereof reduce the minimum inhibitory concentration (MIC) of an antibiotic in the presence and/or absence of human serum, pulmonary surfactant, and/or sputum, including human sputum and human sputum from a cystic fibrosis patient. Any known method to assess MIC may be used. In some embodiments, a checkerboard assay is used to determine the effect of a Chp peptide or active fragment thereof on antibiotic concentration. The checkerboard assay is based on a modification of the CLSI method for MIC determination by broth microdilution (See Clinical and Laboratory Standards Institute (CLSI), CLSI. 2015. Methods for Dilution Antimicrobial Susceptibility Tests for Bacteria That Grow Aerobically; Approved Standard-10th Edition. Clinical and Laboratory Standards Institute, Wayne, PA, which is herein incorporated by reference in its entirety and Ceri et al. 1999. J. Clin. Microbiol. 37: 1771-1776, which is also herein incorporated by reference in its entirety).
# Checkerboards are constructed by first preparing columns of e.g., a 96-well polypropylene microtiter plate, wherein each well has the same amount of antibiotic diluted 2-fold along the horizontal axis. […] The Chp peptide or active fragment thereof and antibiotic dilutions are then combined, so that each column has a constant amount of antibiotic and doubling dilutions of Chp peptide, while each row has a constant amount of Chp peptide and doubling dilutions of antibiotic. Each well thus has a unique combination of Chp peptide and antibiotic. Bacteria are added to the drug combinations at concentrations of 1×10^5 GFU/ml in CAA, for example, with or without human serum or pulmonary surfactant. […] Summation fractional inhibitory concentrations (ΣFICs) are calculated for each drug and the minimum ΣFIC value (ΣFICmin) is used to determine the effect of the Chp peptide/antibiotic combination.
# (§1) GN370 was further tested in combination with up to seven additional antibiotics (in addition to meropenem) against a variety of bacterial strains, including P. aeruginosa, A. baumannii, E. coli, E. cloacae, and K. pneumoniae. GN370 and the subject antibiotics were tested in a checkerboard assay format, and FICI values were determined, wherein ≤0.5 indicates synergy, >0.5-≤1 indicates additive; and >1 indicates indifferent.
# [2] = tested on: K. pneumoniae; assay: Checkerboard synergy assay (FICI) against K. pneumoniae; assay type: cell-based, Klebsiella pneumoniae; conditions: K. pneumoniae HM-44
# Experimental: Any known method to assess MIC may be used.
# Checkerboards are constructed by first preparing columns of e.g., a 96-well polypropylene microtiter plate, wherein each well has the same amount of antibiotic diluted 2-fold along the horizontal axis. […] Bacteria are added to the drug combinations at concentrations of 1×10^5 […] in CAA, for example, with or without human serum or pulmonary surfactant. […] Summation fractional inhibitory concentrations (ΣFICs) are calculated for each drug and the minimum ΣFIC value (ΣFICmin) is used to determine the effect of the Chp peptide/antibiotic combination.
# as §1
# [3] = tested on: P. aeruginosa; assay: Checkerboard synergy assay (FICI) with antibiotics against P. aeruginosa; assay type: cell-based, Pseudomonas aeruginosa; set-up: key to average FICI score with amikacin: FICI: ≤0.5 synergy, >0.5–≤1 additive, >1 indifferent; conditions: for MIC (dual agent): GN370 + meropenem
# Summary of the method: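 Checkerboard of 2-fold antibiotic dilutions crossed with GN370 (lysin peptide), bacteria at 1×10^5 CFU/ml in CAA, with or without human serum or pulmonary surfactant. ΣFICmin taken as FICI: ≤0.5 synergy, >0.5–≤1 additive, >1 indifferent.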
# [4] = tested on: P. aeruginosa; assay: microbe, parasite or virus in culture; conditions: Pseudomonas aeruginosa
# [5] = tested on: A. xylosoxidans; assay: Serial passage resistance development study, A. xylosoxidans; assay type: cell-based, Achromobacter xylosoxidans; conditions: A. xylosoxidans, day 28
# [6] = tested on: A. baumannii; assay: MIC by broth microdilution against A. baumannii; assay type: cell-based, Acinetobacter baumannii
# [7] = tested on: E. cloacae; assay: MBEC against E. cloacae biofilm; assay type: cell-based, Enterobacter cloacae; conditions: MDR and XDR E. cloacae (14)
# [8] = tested on: Serratia marcescens; assay: MIC by broth microdilution against Serratia marcescens; assay type: cell-based; conditions: N 9
# Experimental: (§2) MIC values were determined by broth microdilution against clinical isolates and resistant isolates from a wide range of bacterial species, including isolates from the CDC Antibiotic Resistance bank, including the GN ESKAPE pathogens and E. coli, including carbapenem-resistant Enterobacteriaciae, Acinetobacter, and Pseudomonas.
# [9] = tested on: Salmonella senftenberg; assay: MIC by broth microdilution against Salmonella senftenberg; assay type: cell-based; conditions: N 1
# Experimental: as §2
# [10] = tested on: E. coli (ATCC 25922); assay: microbe, parasite or virus in culture; assay type: cell-based, Escherichia coli
# [11] = tested on: E. cloacae; assay: MIC by broth microdilution against E. cloacae; assay type: cell-based, Enterobacter cloacae
# [12] = tested on: Klebsiella oxytoca; assay: MIC by broth microdilution against Klebsiella oxytoca; assay type: cell-based; conditions: N 1
# Experimental: as §2
# [13] = P. aeruginosa (ATCC 27853, CFS 1766)
# [14] = Acinetobacter baumannii, AR Bank, N 41
# [15] = Acinetobacter baumannii, Weill Cornell, N 26
# [16] = Acinetobacter baumannii, all isolates, N 67
# [17] = P. aeruginosa (ATCC 27853, CFS 1766), GN370 with meropenem
# [18] = P. aeruginosa (CFS 2045), GN370 with meropenem
# [19] = P. aeruginosa (CFS 2061), GN370 with meropenem
# [20] = P. aeruginosa strain AR-769, GN370 with Amikacin
# [21] = P. aeruginosa strain AR-769, GN370 with Cefepime
# [22] = P. aeruginosa strain AR-769, GN370 with Ceftazidime
# [23] = P. aeruginosa strain AR-769, GN370 with Ciprofloxacin
# [24] = P. aeruginosa strain AR-769, GN370 with Colistin
# [25] = P. aeruginosa strain AR-769, GN370 with Meropenem
# [26] = P. aeruginosa strain AR-769, GN370 with Tobramycin
# [27] = P. aeruginosa strain AR-769, in combination with Amikacin
# [28] = P. aeruginosa strain AR-769, in combination with Cefepime
# [29] = P. aeruginosa strain AR-769, in combination with Ceftazidime
# [30] = P. aeruginosa strain AR-769, in combination with Ciprofloxacin
# [31] = P. aeruginosa strain AR-769, in combination with Meropenem
# [32] = P. aeruginosa strain AR-769, in combination with Tobramycin
# [33] = Enterobacter cloacae, AR Bank, N 7
# [34] = Enterobacter cloacae, Weill Cornell, N 30
# [35] = Enterobacter cloacae, all isolates, N 37
molecule,measurement,setting,value
"C[C@@H](O)[C@H]1C(=O)N2C(C(=O)O)=C(S[C@@H]3CN[C@H](C(=O)N(C)C)C3)[C@H](C)[C@H]12 [meropenem, reference compound]",FICI of the antibiotic with GN370,[1],0.5
same,FICI of the antibiotic with GN370,[2],0.5
same,MIC (alone),[3]; [13],8 µg/mL
same,MIC (dual agent),[3]; [13],0.25 µg/mL
same,MIC (alone),[3]; P. aeruginosa (CFS 2045),32 µg/mL
same,MIC (dual agent),[3]; P. aeruginosa (CFS 2045),4 µg/mL
same,MIC (alone),[3]; P. aeruginosa (CFS 2061),64 µg/mL
same,MIC (dual agent),[3]; P. aeruginosa (CFS 2061),4 µg/mL
same,FICI of the antibiotic with GN370,"[3]; P. aeruginosa ATCC 27853, checkerboard",0.375
same,Antibiotic MIC (single agent),[3]; P. aeruginosa strain AR-769,64 µg/mL
same,Antibiotic FIC,"[3]; P. aeruginosa strain AR-769, in combination with GN370",0.125
same,Antibiotic MIC (combo),"[3]; P. aeruginosa strain AR-769, in combination with GN370, in µg/mL",8
same,MIC,[4],64 µg/mL
MRLKMARRRYRLPRRRSRRLFSRTALRMHPRNRLRRIMRGGIRF [AM1],change in MIC over serial passage,[5],no increase in the MICs
B1,MIC,[6]; A. baumannii ATCC BAA 747 (Table 27),(MIC = 1 μg/mL)
same,MIC,[6]; A. baumannii ATCC BAA-747 (head of Table 19),1 µg/mL
same,MIC90,[6]; A. baumannii clinical and resistant isolates,1 µg/mL
same,MIC50,[6]; [14],1 µg/mL
same,MIC90,[6]; [14],1 µg/mL
same,MIC Range,[6]; [14],0.064 to 2 µg/mL
same,MIC50,[6]; [15],1 µg/mL
same,MIC90,[6]; [15],1 µg/mL
same,MIC Range,[6]; [15],0.25 to 1 µg/mL
same,MIC50,[6]; [16],1 µg/mL
same,MIC90,[6]; [16],1 µg/mL
same,MIC Range,[6]; [16],0.0625 to 2 µg/mL
same,MBEC50,[7],1 µg/mL
same,MBEC90,[7],2 µg/mL
same,MBEC Range,[7],0.5 to 2 µg/mL
same,Number of isolates at MBEC 0.5 μg/mL,[7],1
same,Number of isolates at MBEC 1 μg/mL,[7],9
same,Number of isolates at MBEC 2 μg/mL,[7],4
same,MIC50,[8],32 µg/mL
same,MIC90,[8],>64 µg/mL
same,MIC Range,[9],2 µg/mL
same,change in MIC over 28-day serial passage,[10]; E. coli (ATCC 25922),No change
same,MIC,"[10]; E. coli ATCC 25922, target organism of serial passage study",0.5 µg/mL
same,GN370 FIC,[3],0.125
same,synergy with meropenem,[3]; 3 strains of P. aeruginosa,synergizes with meropenem against P. aeruginosa
same,MIC (alone),[3]; [13],1 µg/mL
same,MIC (dual agent),[3]; [13],0.06 µg/mL
same,FICmin,[3]; [17],0.091
same,FICmin interpretation,[3]; [17],(Synergy)
same,MIC (alone),[3]; P. aeruginosa (CFS 2045),2 µg/mL
same,MIC (dual agent),[3]; P. aeruginosa (CFS 2045),0.06 µg/mL
same,FICmin,[3]; [18],0.155
same,FICmin interpretation,[3]; [18],(Synergy)
same,MIC (alone),[3]; P. aeruginosa (CFS 2061),4 µg/mL
same,MIC (dual agent),[3]; P. aeruginosa (CFS 2061),0.25 µg/mL
same,FICmin,[3]; [19],0.125
same,FICmin interpretation,[3]; [19],(Synergy)
same,GN370 MIC (single agent),[3]; P. aeruginosa strain AR-769,2 µg/mL
same,FICave,[3]; [20],0.323
same,FICmin,[3]; [20],0.281
same,FICave,[3]; [21],0.542 and 0.419
same,FICmin,[3]; [21],0.5 and 0.375
same,FICave,[3]; [22],1.073
same,FICmin,[3]; [22],1.031
same,FICave,[3]; [23],0.543 and 0.417
same,FICmin,[3]; [23],0.5 and 0.375
same,FICave,[3]; [24],0.292
same,FICmin,[3]; [24],0.25
same,FICave,[3]; [25],0.422 and 0.419
same,FICmin,[3]; [25],0.375
same,FICave,[3]; [26],0.418
same,FICmin,[3]; [26],0.375
same,average FICI score with amikacin,"[3]; P. aeruginosa strain AR-769, checkerboard",0.323
same,GN370 FIC,[3]; [27],0.031
same,GN370 MIC (combo),[3]; [27],0.063 µg/mL
same,GN370 FIC,[3]; [28],0.25
same,GN370 MIC (combo),[3]; [28],0.5 µg/mL
same,GN370 FIC,[3]; [29],0.031
same,GN370 MIC (combo),[3]; [29],0.063 µg/mL
same,GN370 FIC,[3]; [30],0.25
same,GN370 MIC (combo),[3]; [30],0.5 µg/mL
same,GN370 MIC (combo),"[3]; P. aeruginosa strain AR-769, in combination with Colistin",0.25 µg/mL
same,GN370 FIC,[3]; [31],0.25
same,GN370 MIC (combo),[3]; [31],0.5 µg/mL
same,GN370 FIC,[3]; [32],0.25
same,GN370 MIC (combo),[3]; [32],0.5 µg/mL
same,MIC,[11]; E. cloacae ATCC 13047 (head of Table 19),2 µg/mL
same,MIC,[11]; E. cloacae ATCC 29941,(MIC = 2 μg/mL)
same,MIC90,[11]; E. cloacae clinical and resistant isolates,4 µg/mL
same,MIC50,[11]; [33],1 µg/mL
same,MIC90,[11]; [33],4 µg/mL
same,MIC Range,[11]; [33],0.25 to 8 µg/mL
same,MIC50,[11]; [34],2 µg/mL
same,MIC90,[11]; [34],4 µg/mL
same,MIC Range,[11]; [34],0.25 to 8 µg/mL
same,MIC50,[11]; [35],1 µg/mL
same,MIC90,[11]; [35],4 µg/mL
same,MIC Range,[11]; [35],0.016 to 8 µg/mL
same,MIC Range,[12],4 µg/mL
